In PMC9582721, “Hepatitis C virus nonstructural protein NS3 unfolds viral G-quadruplex RNA structures” one finds Kd data, which are given here for 7 molecules.

Data set [1] deals with T1, NS3 (nonstructural protein 3, protease-helicase) (Hepatitis C virus genotype 1b (con1b), UniProt Q9WMX2 1027-1657). In words: fluorescence anisotropy; 100 mM KCl; 6 nM RNA; 25 mM MOPS pH 6.5, 100 mM KCl, 0.1 mM EDTA, 2 mM beta-mercaptoethanol, 0.1 mg/ml BSA, 37 C, 30 min; RNA 2 nM unless stated, folded in 100 mM KCl. Particulars: protein: recombinant; label: 3'-6FAM; parallel G4 with 3' overhang 20 nt.
T1 sequence (Q9WMX2 1027-1657): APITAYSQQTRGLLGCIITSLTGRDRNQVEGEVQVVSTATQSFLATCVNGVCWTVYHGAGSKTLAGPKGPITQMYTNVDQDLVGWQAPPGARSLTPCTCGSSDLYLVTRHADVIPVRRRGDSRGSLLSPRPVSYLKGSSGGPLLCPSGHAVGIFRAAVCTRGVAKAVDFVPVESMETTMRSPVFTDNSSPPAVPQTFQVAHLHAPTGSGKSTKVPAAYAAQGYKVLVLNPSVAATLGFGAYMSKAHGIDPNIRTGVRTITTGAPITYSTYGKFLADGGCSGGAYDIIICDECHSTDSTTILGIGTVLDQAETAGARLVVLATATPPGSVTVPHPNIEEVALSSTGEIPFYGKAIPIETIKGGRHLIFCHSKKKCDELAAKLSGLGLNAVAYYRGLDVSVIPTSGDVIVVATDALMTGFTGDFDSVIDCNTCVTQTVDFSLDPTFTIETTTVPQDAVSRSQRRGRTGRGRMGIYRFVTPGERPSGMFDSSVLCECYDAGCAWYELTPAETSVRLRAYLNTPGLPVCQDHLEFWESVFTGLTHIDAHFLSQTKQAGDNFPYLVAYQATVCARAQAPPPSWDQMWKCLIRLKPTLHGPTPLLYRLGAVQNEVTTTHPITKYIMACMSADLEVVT

In data set [2] the target is T1, NS3 (nonstructural protein 3, …). In words: fluorescence anisotropy; 100 mM KCl; 25 mM MOPS pH 6.5, 100 mM KCl, 0.1 mM EDTA, 2 mM beta-mercaptoethanol, 0.1 mg/ml BSA, 37 C, 30 min; RNA 2 nM unless stated, folded in 100 mM KCl. Particulars: protein: recombinant, label: 3'-6FAM. A general note: Polarisation of emitted light reports the rotation of a fluorescent probe.

For data set [3] the target is unchanged. In words: fluorescence anisotropy; 100 mM KCl; quadratic fit; 25 mM MOPS pH 6.5, 100 mM KCl, 0.1 mM EDTA, 2 mM beta-mercaptoethanol, 0.1 mg/ml BSA, 37 C, 30 min; RNA 2 nM unless stated, folded in 100 mM KCl. The conditions noted are these: protein: recombinant; label: 3'-6FAM; single-stranded.
The target is the same in data set [4]. As to the kind of experiment: fluorescence anisotropy; 100 mM KCl; same data, two-sites fit, Kd1; 25 mM MOPS pH 6.5, 100 mM KCl, 0.1 mM EDTA, 2 mM beta-mercaptoethanol, 0.1 mg/ml BSA, 37 C, 30 min; RNA 2 nM unless stated, folded in 100 mM KCl. The conditions noted are these: protein: recombinant; label: 3'-6FAM; single-stranded.
For data set [5] the target is unchanged. In words: fluorescence anisotropy; 100 mM KCl; 5.4 nM RNA; 25 mM MOPS pH 6.5, 100 mM KCl, 0.1 mM EDTA, 2 mM beta-mercaptoethanol, 0.1 mg/ml BSA, 37 C, 30 min; RNA 2 nM unless stated, folded in 100 mM KCl. The conditions noted are these: protein: recombinant; label: 3'-6FAM; parallel G4 with 3' overhang 20 nt.

B1: HCVG4-A20 (structured_RNA)
RNA: AAGGGCUGCGGGUGGGCAGGGAAAAAAAAAAAAAAAAAAAA
Regarding B1, the dissociation constant (Kd) (in general, the constant that tells how readily two partners part at equilibrium) in data set [1] was found to be 11 ± 3 nM.

B2: NONHCVG4 (structured_RNA)
RNA: AAGGGUGGGUGGGUGGGAA
For B2, the dissociation constant Kd in data set [2] (parallel G4 (three-tetrad)) amounted to 23 ± 7 nM.

B3: HCVG4 (structured_RNA)
RNA: AAGGGCUGCGGGUGGGCAGGGAA
B3: the Kd in data set [2] (parallel G4 (three-tetrad)) worked out at 17 ± 4 nM.

B4: NEGG4 (structured_RNA)
RNA: AAGGGAGGGGGGGUCCUGGAGGAA
As to B4, in data set [2] (parallel G4 (two-tetrad)), the Kd came to 19 ± 5 nM.

B5: A20 (ssRNA)
RNA: AAAAAAAAAAAAAAAAAAAA
With B5, the values for the Kd in data set [3] and in data set [4] were 6 ± 1 nM and 4.9 nM, respectively.

B6: NONHCVG4-A20 (structured_RNA)
RNA: AAGGGUGGGUGGGUGGGAAAAAAAAAAAAAAAAAAAA
As to B6, the equilibrium dissociation constant (Kd) in data set [1] came out at 12 ± 3 nM.

B7: NEGG4-A20 (structured_RNA)
RNA: AAGGGAGGGGGGGUCCUGGAGGAAAAAAAAAAAAAAAAAAAA
For B7, the equilibrium dissociation constant (Kd) in data set [5] was determined as 6 ± 2 nM.
